Changes are numbered by the printed parent chain.
B1: 85801_05F05 (antibody, V domains shown)
VH: QVQLQQWGAGLLKPSETLSLTCAVYGGSFSGYYWNWIRQPPGKGLEWIGEINHSGSTHYNPSLKSRVTISVDTSKNQFSLKLSSVTAADTALYYCARALTGYFDYWGQGTLVTVSS
VL: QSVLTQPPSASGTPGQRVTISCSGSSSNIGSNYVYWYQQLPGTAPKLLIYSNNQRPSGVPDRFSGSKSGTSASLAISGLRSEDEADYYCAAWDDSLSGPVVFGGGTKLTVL
notes: also called 85801_05F05A
B2: 85801_04M12 (antibody, V domains shown)
VH: QVQLVESGGGVVQPGRSLRLSCAASGFTFSSHGMHWVRQAPGKGLEWVAIIWYAGNKKYYADSVKGRFTISRDNSKNTLYLQMNSLRAEDTAVYYCARESLLNSASDIWGQGTMVTVSS
VL: QSVLTQPPSVSAAPGQTVTISCSGSSSNIGNNYVSWYQQLPGTAPKLLIYDNNKRPSGIPDRFSGSKSGTSATLGITGLQTGDEADYYCGTWDSSLSAVVFGGGTKLTVL
notes: also called 85801_04M12A
B3: 85801_05G01 (antibody, V domains shown)
VH: QVQLVQSGAEVKKPGASAKVSCKASGYTFTDYYLHWVRQAPGQGLEWMGWINPNNGGTHYAQKFQGRVTMTRDTSISTAYMELSRLRSDDTAVYYCAREMGGTTAFDYWGQGTLVTVSS
VL: DIQMTQSPSSLSASVGDRVTITCRASQGIGNYLAWFQQRPGKAPKSLIYAASSLQSGVPSKFSGSGSGTDFTLTISSLQPADFAIYYCQQYNIYPYTFGPGTRLEIK
notes: also called 85801_05G01A
B4: 85801_06L19 (antibody, V domains shown)
VH: QVQLVQSGAEVKKPGASVKVSCKASGYTFTDYYIHWVRQAPGQGLEWMGWINPDSGGTHYAQKFQGRVTMTRDTSISTVYMDLSRLRSDDTAVYYCAREGEGLASFDSWGQGTLVTVSS
VL: B3 VL with D17N, G30N, R39K, A81E, I85T, I93N, Y96F, R103K, L104V, E105D
notes: also called 85801_06L19A
B5: 85801_07A01 (antibody, V domains shown)
VH: EVQLVESGGGLVQPGGSLRLSCAASGFTFSSYWMSWVRQAPGKGLEWVANIKQDGSEKYYVDSVKGRFTISRDNAKNSLYLQMNSLRAEDTAVYYCAREGLQLGIFDYWGQGTLVTVSS
VL: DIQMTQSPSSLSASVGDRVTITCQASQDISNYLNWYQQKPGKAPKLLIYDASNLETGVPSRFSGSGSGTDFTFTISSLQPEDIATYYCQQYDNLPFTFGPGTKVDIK
notes: also called 85801_07A01A
B6: 85801_04M04 (antibody, V domains shown)
VH: QVQLVQSGAEVKKPGASVRVSCKASGYTFTSYYIHWVRQAPGQGLEWMGIINPSGGSTSYAQKFQGRVTMTRDTSTTTVYMELSSLRSEDTAVYYCAKSNWAYAFDIWGQGTMVTVSS
VL: SSELTQDPAVSVALGQTVRITCQGDSLSSYYAGWYQQKPGQAPVLVIYGKNNRPSGIPDRFSGSSSEDTASLTITGAQAEDEADYYCNSRDSSDNHLVFGGGTKLTVL
notes: also called 85801_04M04A
B7: 85801_10F19 (antibody, V domains shown)
VH: QVQLVQSGAEVRKPGASVKVSCKASGYTFTDYYMHWVRQAPGQGREWMGWINPNSGGTHYAQKFQGRVTMTWDTSISTAYMELSRLRSDDTAVYYCAREGATTVYFDYWGQGTLVTVSS
VL: DIQLTQSPSFLSASVGDRVTLTCRASQGINNYLAWYQEKPGKAPNPLIYDASTLQSGVPSRFSGSGSGTEFTLTISSLQPEDFATYYCQQLNMYPYTFGQGTKLEIK
notes: also called 85801_10F19A
B8: 85801_10M19 (antibody, V domains shown)
VH: EVQLVESGGGLVQPGGSLRLSCAASGFTFSSYDMHWVRQATGKGLEWVSVIGTAGDTYYPGSVKGRFTISRENAKNSLYLQMNSLRAGDTAVYYCARSRGETDWYFDLWGRGTLVTVSS
VL: EIVLTQSPATLSLSPGERATLSCRASQSVSRLLAWYQQKPGQAPRLLIYDASNRATGIPARFSGSGSGTDFTLTISSLEPEDFAVYYCQQRRNWLTFGGGTKVEIK
notes: also called 85801_10M19A
B9: 85801_04M10 (antibody, V domains shown)
VH: QVQLQESGPGLVKPSETLSLTCTVSGGSISSYYWSWIRQPAGTGLEWIGRFYTSGSTIYNPSLESRVTMSVDTSKNQFSLKLSSVTAADTAVYYCATERDYPHDAFDIWGQGTMVTVSS
VL: DIQLTQSPSFLSASVGDRVTIPCRASQDISSFLAWYQQKPGKAPNLLIYAASTLQSGVPSRFSGSGSGTEFTLTISSLQPEDFATYYCQQLNGYPLTFGGGTKVEIK
notes: also called 85801_04M10A

target: T1, human IL-12RB1 overexpressed on 293T cells (Example 2) (human, UniProt P42701 24-662); test: FACS, hybridoma supernatant, 293T
T1 construct: whole, on cells

| Binder | Fold over parental 293T |
| --- | --- |
| B1 | 311 fold |
| B2 | 192 fold |
| B3 | 170 fold |
| B4 | 73 fold |
| B5 | 57 fold |
| B6 | 620 fold |
| B7 | 41 fold |
| B8 | 58 fold |
| B9 | 336 fold |

target: T2, cyno IL-12RB1 overexpressed on 293T cells (Example 2) (cyno, UniProt A0A2K5VWV1 24-662); test: FACS, hybridoma supernatant, 293T
T2 construct: whole, on cells

| Binder | Fold over parental 293T |
| --- | --- |
| B1 | 118 fold |
| B2 | 71 fold |
| B3 | 73 fold |
| B4 | 25 fold |
| B5 | 21 fold |
| B6 | 195 fold |
| B7 | 16 fold |
| B8 | 21 fold |
| B9 | 122 fold |

target: T3, IL-12 receptor endogenously expressed on THP-1 cells (UniProt P42701 24-662; Q99665 24-862); test: FACS, hybridoma supernatant, THP-1
T3 construct: whole, on cells

| Binder | Fold over buffer |
| --- | --- |
| B1 | 56 fold |
| B2 | 45 fold |
| B3 | 7 fold |
| B4 | 9 fold |
| B5 | 37 fold |
| B6 | 12 fold |
| B7 | 8 fold |
| B8 | 35 fold |
| B9 | 36 fold |

Source: US20250019450A1 (DIAGONAL THERAPEUTICS, published 2025)
